Values belong to the binder of their own block, whether it stands above or below them.
Columns and labels:
[1] = target: T1, Human HER3 receptor (human, UniProt P21860 20-1342); experiment: cell-based or functional assay
[2] = target: T2, Human HER3 ECD domain II (human, UniProt P21860 184-329); experiment: DELFIA, plate coated with HER3 Domain II 1ug/ml
T2 construct: also called D2; Domain 2
Description: Dissociation Enhanced Lanthanide Fluorescence Immunoassay (DELFIA) for detection of the anti-HER3 antibodies to HER3 extracellular domain (ECD) was used. The DELFIA procedures were as follows: white Maxisorp 96-well plates (Nunc #437796) were coated with 100 ul/well of 1 ug/ml HER-3 ECD full length or HER3Domain I, II, III and IV in 0.1M carbonate buffer pH 9.5 overnight at 4° C. These plates were blocked with casein in TBS (Thermo Scientific #37532 lot#JD121074). The neat hybridoma supernatant, or the purified anti-HER3 antibodies diluted in Perkin Elmer #4002-0010 Assay Buffer from 10 ug/ml (or 100 ug/ml) to 0.01 ug/ml, or the PK serum samples with a minimum of 3 dilutions (100 ul/well) were added to the plate. These samples were incubated for 2 hours at room temperature while on a plate shaker or overnight at 4° C. […] The plate was washed 4 times with tris-buffer plus 0.05% tween-20 (Perkin Elmer #4010-0010) on a BIOTEK™ plate washer following each antibody incubation step. 100 ul/well of DELFIA enhancement solution (Perkin Elmer 1244-105) was added for 5 minutes at room temperature. […] Antibody binding was recorded as europium counts per well.

[3] = target: T3, Full-length human HER3 extracellular domain (ECD) (human, UniProt P21860 20-643); experiment: BIACORE SPR, mAb captured on protein A, ECD as analyte, 25 C
T3 construct: also called human HER3 ECD; HER-3 ECD full length
Description: (§1) Protein A was immobilised on a CM5 chip by primary amine coupling to a level of ˜1300 resonance units (RU′s), humanized antibodies were then captured on this chip, All antibodies were captured to a similar level (100-200 RU's). […] Alternatively, the full-length, rat HER3 ECD or the full-length cynomolgus monkey ECD were passed over the chip at 10 nM, 5 nM, 2.5 nM, 1:25nM, 0.625 nM and 0.3125nM. An injection of buffer alone was used to double reference the binding curves as indicated in Example 1. Regeneration of this surface was achieved using 10 mM Glycine buffer pH 1.5. The binding data was fitted to the 1:1 model using BIACORE™ Evaluation software. Runs were carried out at 25° C. on a BIACORE™ T3000 using HBS-EP as running buffer.

[4] = target: T1, Human HER3 receptor; experiment: cell-based or functional assay; remark: listed apart in the source
[5] = target: T1, Human HER3 receptor; experiment: cell-based or functional assay; remark: listed apart in the source
[6] = target: T2, Human HER3 ECD domain II; experiment: affinity summary table, method not given
[7] = target: T3, Full-length human HER3 extracellular …; experiment: affinity summary table, method not given
[8] = target: T3, Full-length human HER3 extracellular …; experiment: BIACORE 3000 SPR, mAb captured by anti-human Fc, ECD as analyte, 25 C
Description: The binding kinetics of these antibodies for was assessed using a BIACORE™ 3000. Antibodies were captured on a CM5 biosensor chip to which an immobilized anti-human IgG (Fc specific) BIACORE™ (GE Healthcare cat# BR-1008-39) monoclonal antibody had been conjugated using supplied coupling buffer (9000 RU). Full-length human HER3 ECD concentrations were injected for 120s at a flow rate of 30 ul/min. Biosensor chips were regenerated as described in Example 1. Kinetics were determined by global fitting of data to the 1:1 Langmuir model using BIACORE™ Evaluation software. Analytical runs were carried out at 25° C. using FIBS-EP as the running buffer.
Buffer cycle and double referencing were performed as described in Example 1; and 5) Regenerate biosensor chips with BIACORE™ optimized buffers.

[9] = target: T4, Full-length cynomolgus monkey HER3 extracellular domain (ECD) (cynomolgus monkey, UniProt G7PIG5 20-643); experiment: BIACORE SPR, mAb captured on protein A, ECD as analyte, 25 C
T4 construct: extracellular domain; also called Cynomolgus monkey HER3 ECD
Description: as §1

[10] = target: T5, Full-length rat HER3 extracellular domain (ECD) (rat, UniProt Q62799 20-643); experiment: as above
T5 construct: extracellular domain; also called Rat HER3 ECD
Description: as §1

[11] = target: T3, Full-length human HER3 extracellular …; experiment: as above; remark: listed apart in the source
Description: as §1

[12] = target: T2, Human HER3 ECD domain II; experiment: BIACORE 2000 SPR, mAb captured, HER3 protein as analyte, 25 C
Description: (§2) Mouse monoclonal antibodies were analysed using rabbit anti-mouse (RAM) IgG (GE Healthcare BR-1008-38) covalently coupled to a BIACORE™ CM5 chip (GE HEalthcare BR-1000-14) by primary amine chemistry (NHS/EDC activated) (GE Healthcare amine coupling kit BR-1000-50). Chimeric and humanized competitor monoclonal antibodies were analyzed using anti-human, Fc specific monoclonal (GE Healthcare BR-1008-39) similarly coupled. Each chip was also prepared with a reference surface to which no capture reagent antibody is coupled. Sensorgrams for cycles run with differing analyte concentrations are acquired for kinetic analysis. A cycle consists of capturing the monoclonal on the surface, a short stabilization period with flowing run buffer followed by binding of a defined concentration of analyte (ECD or sub-domain protein). Injection of analyte for surface binding (3-4 minutes) yields the association part of curve. This is followed by buffer only flow (3-4 minutes) which allows recording of dissociation data.
(§3) The general method for affinity analysis is as follows. First, chips were prepared and tested for reasonance units (RU) captured for several monoclonal antibody concentrations. Kinetic cycles were then run in which monoclonal antibody was captured to a level of approximately 100RU, analyte protein was allowed to bind then dissociate and the surface was regenerated to remove all but covalently coupled protein. RAM chips were regenerated with capture kit supplied 100 mM glycine pH1.7 and anti-human chips with capture kit supplied 3M MgCl₂. […] Several buffer cycles were run prior to analyte protein to ensure cycle consistency and in some experiments a buffer cycle is used a “double reference[.]” Analytes used were human full length HER3 extra cellular domain (ECD), separate sub-domains of the extracellular portion of human HER3 (D1, D2, D3, D4), or combination HER3 domain proteins (D1-2 and D2-3).

[13] = target: T3, Full-length human HER3 extracellular …; experiment: as above
Description: as §2, §3

T2 sequence (P21860 184-329): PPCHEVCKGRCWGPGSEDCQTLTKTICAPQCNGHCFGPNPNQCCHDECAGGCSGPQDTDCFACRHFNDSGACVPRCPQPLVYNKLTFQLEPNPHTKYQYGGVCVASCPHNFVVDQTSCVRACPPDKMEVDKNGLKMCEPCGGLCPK
T4 sequence (G7PIG5 entry or part of it): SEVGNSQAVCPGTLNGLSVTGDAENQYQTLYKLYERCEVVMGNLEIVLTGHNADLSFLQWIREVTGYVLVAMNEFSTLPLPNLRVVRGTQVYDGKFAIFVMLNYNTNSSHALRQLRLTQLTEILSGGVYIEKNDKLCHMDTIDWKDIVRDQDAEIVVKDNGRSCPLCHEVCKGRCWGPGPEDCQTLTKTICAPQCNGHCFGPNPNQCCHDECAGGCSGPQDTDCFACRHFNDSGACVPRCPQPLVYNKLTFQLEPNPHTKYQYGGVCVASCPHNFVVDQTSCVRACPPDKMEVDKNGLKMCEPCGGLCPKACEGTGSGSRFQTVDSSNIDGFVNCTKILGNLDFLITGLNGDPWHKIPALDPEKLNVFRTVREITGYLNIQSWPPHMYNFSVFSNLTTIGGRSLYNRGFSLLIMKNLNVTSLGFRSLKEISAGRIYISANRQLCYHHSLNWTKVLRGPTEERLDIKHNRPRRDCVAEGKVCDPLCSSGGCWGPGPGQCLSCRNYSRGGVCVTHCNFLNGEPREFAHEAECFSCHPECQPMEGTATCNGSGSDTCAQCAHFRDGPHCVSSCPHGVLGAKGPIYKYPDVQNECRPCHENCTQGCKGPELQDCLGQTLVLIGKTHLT
T5 sequence (Q62799 20-643): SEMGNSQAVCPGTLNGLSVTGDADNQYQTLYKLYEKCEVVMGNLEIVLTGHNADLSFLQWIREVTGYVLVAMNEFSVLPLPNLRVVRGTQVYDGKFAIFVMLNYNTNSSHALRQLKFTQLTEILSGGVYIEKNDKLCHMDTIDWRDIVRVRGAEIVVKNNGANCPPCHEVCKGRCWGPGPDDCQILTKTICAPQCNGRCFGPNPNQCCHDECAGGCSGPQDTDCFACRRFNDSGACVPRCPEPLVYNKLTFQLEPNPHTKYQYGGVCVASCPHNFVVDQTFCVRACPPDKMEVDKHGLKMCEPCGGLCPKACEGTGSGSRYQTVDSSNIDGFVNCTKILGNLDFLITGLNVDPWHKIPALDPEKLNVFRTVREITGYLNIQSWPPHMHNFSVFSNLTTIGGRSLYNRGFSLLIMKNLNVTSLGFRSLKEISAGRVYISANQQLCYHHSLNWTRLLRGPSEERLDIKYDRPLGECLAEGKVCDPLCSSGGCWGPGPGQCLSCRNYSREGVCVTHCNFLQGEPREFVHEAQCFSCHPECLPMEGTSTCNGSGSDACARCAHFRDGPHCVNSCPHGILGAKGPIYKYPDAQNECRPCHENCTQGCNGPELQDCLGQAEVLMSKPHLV
T3 sequence (P21860 20-643): as the sequence (G7PIG5 entry or part of it) above, with K145R, Q151R, L166P, P180S, Y388H counted along it
T1 sequence (P21860 20-1342 limits assumed): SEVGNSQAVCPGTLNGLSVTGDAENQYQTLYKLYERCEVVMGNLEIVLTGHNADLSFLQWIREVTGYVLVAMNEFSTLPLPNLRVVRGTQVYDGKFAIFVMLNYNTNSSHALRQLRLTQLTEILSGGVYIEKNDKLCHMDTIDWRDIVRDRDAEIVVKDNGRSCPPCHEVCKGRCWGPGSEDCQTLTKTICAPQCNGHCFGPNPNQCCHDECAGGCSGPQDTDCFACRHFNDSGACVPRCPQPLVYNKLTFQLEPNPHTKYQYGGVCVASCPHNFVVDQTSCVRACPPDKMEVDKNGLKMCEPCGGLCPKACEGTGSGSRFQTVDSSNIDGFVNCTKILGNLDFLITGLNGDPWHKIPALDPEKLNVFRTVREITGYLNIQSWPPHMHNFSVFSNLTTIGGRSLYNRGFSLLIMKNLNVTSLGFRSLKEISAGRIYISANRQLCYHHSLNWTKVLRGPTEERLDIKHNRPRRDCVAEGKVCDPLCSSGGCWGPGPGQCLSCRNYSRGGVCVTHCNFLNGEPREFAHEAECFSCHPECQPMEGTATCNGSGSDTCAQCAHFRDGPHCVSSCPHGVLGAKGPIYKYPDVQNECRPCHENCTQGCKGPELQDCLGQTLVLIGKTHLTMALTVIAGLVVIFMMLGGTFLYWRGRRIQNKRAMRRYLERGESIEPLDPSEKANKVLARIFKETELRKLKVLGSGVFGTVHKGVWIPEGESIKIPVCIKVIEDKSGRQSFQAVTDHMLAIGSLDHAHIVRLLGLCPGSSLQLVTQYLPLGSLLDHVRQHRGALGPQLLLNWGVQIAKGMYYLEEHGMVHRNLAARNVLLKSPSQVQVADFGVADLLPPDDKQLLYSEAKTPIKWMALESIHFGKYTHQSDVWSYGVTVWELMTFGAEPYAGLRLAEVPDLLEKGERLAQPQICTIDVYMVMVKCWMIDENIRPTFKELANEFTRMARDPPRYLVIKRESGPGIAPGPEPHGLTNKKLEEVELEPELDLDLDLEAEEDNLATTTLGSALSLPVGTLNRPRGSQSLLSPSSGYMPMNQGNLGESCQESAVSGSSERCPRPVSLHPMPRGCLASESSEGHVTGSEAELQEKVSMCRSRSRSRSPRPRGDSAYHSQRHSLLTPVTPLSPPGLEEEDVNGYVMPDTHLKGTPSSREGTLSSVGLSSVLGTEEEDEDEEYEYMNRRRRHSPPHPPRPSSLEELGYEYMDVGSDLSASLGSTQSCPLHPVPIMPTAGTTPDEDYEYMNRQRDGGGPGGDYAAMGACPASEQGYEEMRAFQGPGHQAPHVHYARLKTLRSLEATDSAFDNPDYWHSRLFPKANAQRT

B3: Humanized 1D9 Fc disabled antibody (antibody, V domains shown)
VH: QVQLVQSGAEVKKPGASVKVSCKASGYTFTSYWMHWVRQAPGQGLEWMGVIDPSDGYSHYNQKFKGKVTLTVDTSISTAYMELSRLRSDDTAVYYCAGGLAGTLDYWGQGTTVTVSS
VL: DIQMTQSPSSLSASVGDRVTITCRSSQSIVHSSGNTYLQWFQQKPGKAPKLLIYKVSNRFSGVPSRFSGSGSGTDFTLTISSLQPEDFAVYYCFQGSHVPWTFGQGTKLEIKR
notes: Humanized VH fused to a modified Fc domain incapable of mediating CDC/ADCC; also called humanized 1D9 H6L2 Fc disabled antibody
Kd [3]: 4.49 nM
koff [3]: 0.00122 s⁻¹
kon [3]: 271000 M⁻¹ s⁻¹
Phospho-HER3 ELISA IC50, heregulin induced, BxPC3 cells [4]: 0.0107 µg/mL
Phospho-HER3 ELISA IC50, heregulin induced, CHL-1 cells [4]: 0.0399 µg/mL
Phospho-HER3 ELISA IC50, heregulin induced, N87 cells [4]: 0.0297 µg/mL
Phospho-HER3 ELISA IC50, heregulin induced, SK-BR-3 cells [4]: 0.0044 µg/mL
Phospho-AKT ELISA IC50, heregulin induced, BxPC3 cells [5]: 0.0316 µg/mL
Kd [9]: 1.73 nM
koff [9]: 0.00189 s⁻¹
kon [9]: 1.09e+06 M⁻¹ s⁻¹
Kd [10]: 3.37 nM
koff [10]: 0.0011 s⁻¹
kon [10]: 326000 M⁻¹ s⁻¹
Kd [11]: 4.49 nM
koff [11]: 0.00122 s⁻¹
kon [11]: 271000 M⁻¹ s⁻¹

B4: Chimeric 15D5 antibody (antibody, human IgG1, V domains shown)
VH: EFQLQQSGPELVKPGASVKISCKASGYSFTDYNMNWVKQNNGKSLEWIGGINPNYGTTVYNQKFKGKATLTVDQSSSTAYMQLVSLTSEDSAVYYCARMTTIVPFDYWGQGTTLTVSS
VL: DIQMTQTTFSLSASLGDRVTISCRASQDISNYLNWYQQKPDGTVKLLIYYTSTLHSGVPSRFSGSGSGTDYFLTIRNLEEEDIATYFCQQGYTLPWTFGGGTKLDIK
notes: To be rechecked; also called Ch15D5; ch15D5
Kd [6]: 0.02 nM
Kd [7]: ~1 nM
Kd [12]: 0.02 nM
kon [12]: 3.82e+06 M⁻¹ s⁻¹
Kd [13]: 0.87 nM
kon [13]: 67900 M⁻¹ s⁻¹
Kd [8]: 3.19 nM
koff [8]: 0.00014 s⁻¹
kon [8]: 44000 M⁻¹ s⁻¹

Now from value to binder:

IC50 of heregulin induced phospho-AKT formation, BxPC3 cells [1]: 0.0026 µg/mL
binding result [2]: no binding (tested: 10 ug/ml)
Kd [3]: 2.06 nM
koff [3]: 0.00233 s⁻¹
kon [3]: 1.13e+06 M⁻¹ s⁻¹
Phospho-HER3 ELISA IC50, heregulin induced, BxPC3 cells [4]: 0.0026 µg/mL
Phospho-HER3 ELISA IC50, heregulin induced, CHL-1 cells [4]: 0.0311 µg/mL
Phospho-HER3 ELISA IC50, heregulin induced, N87 cells [4]: 0.0094 µg/mL
Phospho-HER3 ELISA IC50, heregulin induced, SK-BR-3 cells [4]: 0.0025 µg/mL
Phospho-AKT ELISA IC50, heregulin induced, BxPC3 cells [5]: 0.0108 µg/mL
B1: Humanized 1D9 …B™ antibody (antibody, human IgG1, kappa)
heavy: QVQLVQSGAEVKKPGASVKVSCKASGYTFTSYWMHWVRQAPGQGLEWMGVIDPSDGYSHYNQKFKGKVTLTVDTSISTAYMELSRLRSDDTAVYYCAGGLAGTLDYWGQGTTVTVSSASTKGPSVFPLAPSSKSTSGGTAALGCLVKDYFPEPVTVSWNSGALTSGVHTFPAVLQSSGLYSLSSVVTVPSSSLGTQTYICNVNHKPSNTKVDKKVEPKSCDKTHTCPPCPAPELLGGPSVFLFPPKPKDTLMISRTPEVTCVVVDVSHEDPEVQFKWYVDGVEVHNAKTKPREEQFNSTFRVVSVLTVLHQDWLNGKEYKCKVSNKALPAPIEKTISKTKGQPREPQVYTLPPSREEMTKNQVSLTCLVKGFYPSDIAVEWESSGQPENNYKTTPPMLDSDGSFFLYSKLTVDKSRWQQGNIFSCSVMHEALHNHYTQKSLSLSPGK
light: DIQMTQSPSSLSASVGDRVTITCRSSQSIVHSSGNTYLQWFQQKPGKAPKLLIYKVSNRFSGVPSRFSGSGSGTDFTLTISSLQPEDFAVYYCFQGSHVPWTFGQGTKLEIKRTVAAPSVFIFPPSDEQLKSGTASVVCLLNNFYPREAKVQWKVDNALQSGNSQESVTEQDSKDSTYSLSSTLTLSKADYEKHKVYACEVTHQGLSSPVTKSFNRGEC
modifications: non-fucosylated glycans on the marked N* residue
notes: Chimeric IgG1/IgG3 Fc, expressed in FUT8- cells; also called humanized …B 1D9 antibody; humanized 1D9 H6L2 …B antibody

Kd [6]: 0.074 nM
Kd [7]: 3.5 nM
Kd [8]: 2.62 nM
koff [8]: 0.000196 s⁻¹
kon [8]: 74900 M⁻¹ s⁻¹
B2: Humanized 15D5 antibody (H4L1) (antibody, human IgG1, V domains shown)
VH: QVQLVQSGAEVKKPGASVKVSCKASGYTFTDYNMNWVRQAPGQGLEWMGGINPNYGTTVYNQKFKGKVTLTVDTSISTAYMELSRLRSDDTAVYYCARMTTIVPFDYWGQGTTVTVSS
VL: DIQMTQSPSSLSASVGDRVTITCRASQDISNYLNWYQQKPGKAPKLLIYYTSTLHSGVPSRFSGSGSGTDYTFTISSLQPEDIATYYCQQGYTLPWTFGGGTKVEIKR
notes: Human IgG1; also called h15D5

Source: patent US20130156779A1 (GlaxoSmithKline, published 2013)
